Reference: patent publication EP0251446B1, “Non-human Carbonyl hydrolase mutants, DNA sequences and vectors encoding same and hosts transformed with said vectors” (GENENCOR INTERNATIONAL, INC., priority 1986, dated 1988)
Where a chain is given by its changes, count along the chain named. Names and notes keep the numbering of the source.

Tests used:
Type in all cases: biochemical, B. amyloliquefaciens
[1] = substrate: CSCC[C@H](NC(=O)[C@@H]1CCCN1C(=O)[C@H](C)NC(=O)[C@H](C)NC(=O)CCC(=O)O)C(=O)Nc1ccc([N+](=O)[O-])cc1; assay: Kinetics of p-nitroanilide substrate hydrolysis, S156; details: other: Table XIV, 156 Ser / 166 Gly; value in parentheses; synthetic substrate with label as P-1 amino acid; 37.0 °C
Source text: (§1) Wild-type subtilisin was purified from B. subtilis culture supernatants expressing the B. amyloliquefaciens subtilisin gene (Wells, J.A., et al. (1983) Nucleic Acids Res. 11, 7911-7925) as previously described (Estell, D.A., et al. (1985) J. Biol. Chem. 260, 6518-6521). Details of the synthesis of tetrapeptide substrates having the form succinyl-L-AlaL-AlaL-ProL-[X]-p-nitroanilide (where X is the P1 amino acid) are described by DelMar, E.G., et al. (1979) Anal. Biochem. 99, 316-320. Kinetic parameters, Km(M) and kcat-(s-^1) were measured using a modified progress curve analysis (Estell, D.A., et al. (1985) J. Biol. Chem. 260, 6518-6521). Briefly, plots of rate versus product concentration were fit to the differential form of the rate equation using a non-linear regression algorithm. Errors in kcat and Km for all values reported are less than five percent. The various substrates in Table VIII are ranged in order of decreasing hydrophobicity. Nozaki, Y. (1971), J. Biol. Chem. 246, 2211-2217; Tanford C. (1978) Science 200, 1012).
(§2) Construction of position 156 single mutants were prepared by ligation of the three fragments (1-3) indicated at the bottom of Figure 21. Fragment 3, containing the carboxy-terminal portion of the subtilisin gene including the wild type position 166 codon, was isolated as a 610 bp Sacl-BamHI fragment. Fragment 1 contained the vector sequences, as well as the amino-terminal sequences of the subtilisin gene through codon 151. To produce fragment 1, a unique Kpnl site at codon 152 was introduced into the wild type subtilisin sequence from pS4.5. Site-directed mutagenesis in M13 employed a primer having the sequence 5'-TA-GTC-GTT-GCG-GTA-CCC-GGT-AAC-GAA-3' to produce the mutation. Enrichment for the mutant sequence was accomplished by restriction with Kpnl, purification and self ligation. The mutant sequence containing the Kpnl site was confirmed by direct plasmid sequencing to give pV152. pV152 (-1 µg) was digested with Kpnl and treated with 2 units of DNA polymerase I large fragment (Klenow fragment from Boeringer-Mannheim) plus 50 µM deoxynucleotide triphosphates at 37°C for 30 min. This created a blunt end that terminated with codon 151. The DNA was extracted with 1:1 volumes phenol and CHC13 and DNA in the aqueous phase was precipitated by addition of 0.1 volumes 5M ammonium acetate and two volumes ethanol. After centrifugation and washing the DNA pellet with 70% ethanol, the DNA was lyophilized. DNA was digested with BamHl and the 4.6kb piece (fragment 1) was purified by acrylamide gel electrophoresis followed by electroelution. […] The top strand was synthesized to contain a glutamine codon, and the complementary bottom strand coded for serine at 156. Ligation of heterophosphorylated cassettes leads to a large and favorable bias for the phosphorylated over the non-phosphorylated oligonucleotide sequence in the final segrated plasmid product. Therefore, to obtain Q156 the top strand was phosphorylated, and annealed to the non-phosphorylated bottom strand prior to ligation. Similarly, to obtain S156 the bottom strand was phosphorylated and annealed to the non-phosphorylated top strand. Mutant sequences were isolated after ligation and transformation, and were confirmed by restriction analysis and DNA sequencing as before. To express variant subtilisins, plasmids were transformed into a subtilisin-neutral protease deletion mutant of B. subtilis, BG2036, as previously described. Cultures were fermented in shake flasks for 24 h at 37 ° C in LB media containing […] chloramphenicol and subtilisin was purified from culture supernatants as described. Purity of subtilisin was greater than 95% as judged by SDS PAGE.
(§3) These mutant plasmids designated pS156 and pQ156 and mutant subtilisins designated S156 and Q156 were analyzed with the above synthetic substrates where P-1 comprised the amino acids Glu, Gln, Met and Lys. The results of this analyses are presented in Example 9. […]

[2] = substrate: C[C@H](NC(=O)CCC(=O)O)C(=O)N[C@@H](C)C(=O)N1CCC[C@H]1C(=O)N[C@@H](CCCCN)C(=O)Nc1ccc([N+](=O)[O-])cc1; assay: as above; details: other: Table XIV, 156 Ser / 166 Gly; value in parentheses; synthetic substrate with label as P-1 amino acid; 37.0 °C
Source text: as §1, §2, §3

[3] = substrate: C[C@H](NC(=O)CCC(=O)O)C(=O)N[C@@H](C)C(=O)N1CCC[C@H]1C(=O)N[C@@H](CCC(N)=O)C(=O)Nc1ccc([N+](=O)[O-])cc1; assay: as above; details: other: Table XIV, 156 Ser / 166 Gly; value in parentheses; synthetic substrate with label as P-1 amino acid; 37.0 °C
Source text: as §1, §2, §3

[4] = substrate: C[C@H](NC(=O)CCC(=O)O)C(=O)N[C@@H](C)C(=O)N1CCC[C@H]1C(=O)N[C@@H](CCC(=O)O)C(=O)Nc1ccc([N+](=O)[O-])cc1; assay: as above; details: 37.0 °C
Source text: as §1, §2, §3

[5] = substrate: C[C@H](NC(=O)CCC(=O)O)C(=O)N[C@@H](C)C(=O)N1CCC[C@H]1C(=O)N[C@@H](Cc1ccccc1)C(=O)Nc1ccc([N+](=O)[O-])cc1; assay: as above; details: other: Table XIII, S156; synthetic substrate with label as P-1 residue; 37.0 °C
Source text: as §1, §2, §3

[6] = substrate: CSCC[C@H](NC(=O)[C@@H]1CCCN1C(=O)[C@H](C)NC(=O)[C@H](C)NC(=O)CCC(=O)O)C(=O)Nc1ccc([N+](=O)[O-])cc1; assay: Kinetics of p-nitroanilide substrate hydrolysis, K166; details: other: Table XIV, 156 Glu / 166 Lys; value in parentheses; synthetic substrate with label as P-1 amino acid
[7] = substrate: C[C@H](NC(=O)CCC(=O)O)C(=O)N[C@@H](C)C(=O)N1CCC[C@H]1C(=O)N[C@@H](CCCCN)C(=O)Nc1ccc([N+](=O)[O-])cc1; assay: as above; details: other: Table XIV, 156 Glu / 166 Lys; value in parentheses; synthetic substrate with label as P-1 amino acid
[8] = substrate: C[C@H](NC(=O)CCC(=O)O)C(=O)N[C@@H](C)C(=O)N1CCC[C@H]1C(=O)N[C@@H](CCC(N)=O)C(=O)Nc1ccc([N+](=O)[O-])cc1; assay: as above; details: other: Table XIV, 156 Glu / 166 Lys; value in parentheses; synthetic substrate with label as P-1 amino acid
[9] = substrate: C[C@H](NC(=O)CCC(=O)O)C(=O)N[C@@H](C)C(=O)N1CCC[C@H]1C(=O)N[C@@H](CCC(=O)O)C(=O)Nc1ccc([N+](=O)[O-])cc1; assay: as above
Source text: as §1
(§4) The construction of subtilisin mutants containing the substitution of the ionic amino acids Asp, Asn, Gln, Lys and Ang are disclosed in EPO Publication No. 0130756. The present example describes the construction of the mutant subtilisin containing Glu at position 166 (E166) and presents substrate specificity data on these mutants. Further data on position 166 and 156 single and double mutants is presented infra.
(§5) Each of these mutants was analyzed with the tetrapeptide substrates, succinyl-L-AlaL-AlaProL-X-p-nitroanilide, where X was Phe, Ala and Glu.
(§6) K166 is a common replacement amino acid in the 156/166 mutants described herein. The replacement of Lys for GIy166 was achieved by using the synthetic DNA cassette at the top right of Figure 21 which contained the triplet AAA for NNN. This produced fragment 2 with Lys substituting for GIy166.
(§7) These mutants, the single mutant K166, and the S156 and Q156 mutants of Example 8 were analyzed for substitute specificity against synthetic polypeptides containing Phe or Glu as the P-1 substrate residue.

[10] = substrate: C[C@H](NC(=O)CCC(=O)O)C(=O)N[C@@H](C)C(=O)N1CCC[C@H]1C(=O)N[C@@H](Cc1ccccc1)C(=O)Nc1ccc([N+](=O)[O-])cc1; assay: as above; details: K166
Source text: as §1, §4, §5, §6, §7

[11] = other: Table XIII, S156, synthetic substrate with label as P-1 residue
[12] = other: Table XIII, K166, synthetic substrate with label as P-1 residue
[13] = other: Table XIII, synthetic substrate with label as P-1 residue

B1: B. amyloliquefaciens subtilisin variant S156 (Glu156 to Ser) (Bacillus amyloliquefaciens; E263S) (protein)
chain: AQSVPYGVSQIKAPALHSQGYTGSNVKVAVIDSGIDSSHPDLKVAGGASMVPSETNPFQDNNSHGTHVAGTVAALNNSIGVLGVAPSASLYAVKVLGADGSGQYSWIINGIEWAIANNMDVINMSLGGPSGSAALKAAVDKAVASGVVVVAAAGNSGTSGSSSTVGYPGKYPSVIAVGAVDSSNQRASFSSVGPELDVMAPGVSIQSTLPGNKYGAYNGTSMASPHVAGAAALILSKHPNWTNTQVRSSLENTTTKLGDSFYYGKGLINVQAAAQ
notes: at various amino acid residues within the mature form of the subtilisin molecule; made in house; host or cells: Bacillus subtilis BG2036
Work on B1 yielded a Km [1] of 28.2 µM, a Km [2] of 1820 µM and a Km [3] of 209 µM. It also gave a Km [4, 11] of 1800 µM, a kcat [4, 11] of 0.40 s-^1 and a Km ([4]; other: Table XIV, 156 Ser / 166 Gly, value in parentheses, synthetic substrate with label as P-1 amino acid) of 1860 µM. For the same protein, the Km [5] was 47 µM, the kcat [5] was 34.00 s-^1 and the kcat/Km [5] was 730000 M⁻¹ s⁻¹.

B2: B. amyloliquefaciens subtilisin variant K166 (Gly166 to Lys) (Bacillus amyloliquefaciens; G273K) (protein)
chain: B1 chain with S156E, G166K
notes: as for B1
In the case of B2, the Km [6] is reported as 35.5 µM, the Km [7] is reported as 1170 µM and the Km [8] is reported as 132 µM. It also gave a Km [9, 12] of 56 µM, a kcat [9, 12] of 0.70 s-^1 and a kcat/Km [9, 12] of 12000 M⁻¹ s⁻¹. The Km ([9]; other: Table XIV, 156 Glu / 166 Lys, value in parentheses, synthetic substrate with label as P-1 amino acid) was 56.2 µM, the Km [10, 13] was 40 µM and the kcat [10, 13] was 20.00 s-^1. For the same protein, the kcat/Km [10, 13] was 520000 M⁻¹ s⁻¹, the Km ([10]; other: Table XIX) was 37 µM and the kcat ([10]; other: Table XIX) was 21 s-^1.
